Experimental data published in patent US20230203199A1 (published 2023).

Target: T1, hCD20 on transfected Expi293 cells (human, UniProt P11836 1-297)
T1 construct: whole, on cells
T1 sequence (looked up): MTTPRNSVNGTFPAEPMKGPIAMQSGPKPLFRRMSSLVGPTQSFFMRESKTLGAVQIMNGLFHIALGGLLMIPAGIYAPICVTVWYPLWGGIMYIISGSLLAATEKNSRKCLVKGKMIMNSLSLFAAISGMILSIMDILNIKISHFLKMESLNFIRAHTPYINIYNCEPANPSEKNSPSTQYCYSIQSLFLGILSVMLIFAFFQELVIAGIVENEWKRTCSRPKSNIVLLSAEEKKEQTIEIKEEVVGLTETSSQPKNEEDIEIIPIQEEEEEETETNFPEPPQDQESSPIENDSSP
Experiment: flow cytometry on Expi293 cells transfected with hCD20, anti-human Fc PE detection
Method: Expi293 cells transfected hCD20 were seeded in 96 U-bottom plate at 1×10e5 cells/well. The TASER antibody or human IgG1 isotype control were added at final concentration 1-10 μg/ml and incubated on ice or at 4° C. for 20-30 minutes. […] Stained cells were analyzed by flow cytometry and the binding ability were presented as PE positive population among total live cells.

B1: MX846 (bispecific antibody)
chain 1: not shown
chain 2: QAVVTQEPSLTVSPGGTVTLTCGSSTGAVTTSNYANWVQEKPGQAFRGLIGGTNKRAPGTPARFSGSLLGGKAALTLSGAQPEDEAEYYCALWYSNLWVFGGGTKLTVLGGSGGDIVMTQTPLSLPVTPGEPASISCRSSKSLLHSNGITYLYWYLQKPGQSPQLLIYQMSNLVSGVPDRFSGSGSGTDFTLKISRVEAEDVGVYYCAQNLELPYTFGGGTKVEIKGSGGSAGSGSGGGGSASGSGQVQLVQSGAEVKKPGSSVKVSCKASGYAFSYSWINWVRQAPGQGLEWMGRIFPGDGDTDYNGKFKGRVTITADKSTSTAYMELSSLRSEDTAVYYCARNVFDGYWLVYWGQGTLVTVSSGGSGGEVQLLESGGGLVQPGGSLRLSCAASGFTFSTYAMNWVRQAPGKGLEWVSRIRSKYNNYATYYADSVKGRFTISRDDSKNTLYLQMNSLRAEDTAVYYCVRHGNFGNSYVSWFAYWGQGTLVTVSSASGGSGDKTHTCPPCPAPEAAGGPSVFLFPPKPKDTLMISRTPEVTCVVVDVSHEDPEVKFNWYVDGVEVHNAKTKPREEQYNSTYRVVSVLTVLHQDWLNGKEYKCKVSNKALAAPIEKTISKAKGQPREPQVCTLPPSRDELTKNQVSLSCAVKGFYPSDIAVEWESNGQPENNYKTTPPVLDSDGSFFLVSKLTVDKSRWQQGNVFSCSVMHEALHNHYTQKSLSLSPG
binding result: binds
